From the supplement of paper PMC6757056
± gives the standard deviation of the averaged measurements.

B1: library; a variant is named by its letters at N, in order (parent)
chain: GCUGUCACCGGUGCUUGGUACGUUAUAUUCAGCCGGUCUGAUGAGUCUNNNNNNAGACGAAACAGC

Legend:
(6R,S)-folinic acid [1] = variants of: B1; assay: FACS-Seq fitted mean relative fluorescence mCherry/BFP without ligand (log10 relative fluorescence); HEK293T overexpressing SLC46A1; higher = higher reporter protein expression; conditions: without (6R,S)-folinic acid; ligand present: no
In short: (§1)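 Sorting into 6 bins by mCherry/BFP followed 48 h of incubation with or without ligand. The cells were enriched HEK293T libraries lentivirally bearing an mCherry reporter with the ribozyme switch and an EF1α-BFP marker, and bin genomic DNA was PCR-amplified, barcoded and sequenced on MiSeq. Fluorescence is the fitted normal mean of the bin counts. Means were fitted on log10(mCherry/BFP), scaled to five spiked-in control ribozymes.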

(6R,S)-folinic acid [2] = variants of: B1; assay: normalized RNA/DNA level without ligand (relative to sTRSVctl = 100) (log10 (% of sTRSVctl)); HEK293T overexpressing SLC46A1; higher = less ribozyme self-cleavage, higher mRNA level; conditions: without (6R,S)-folinic acid; ligand present: no
In short: (§2)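 HEK293T cells received ligand, where used, 1 h before being transfected with 4 µg per 6-well well of library plasmids encoding reporter-linked ribozyme switches. After 72 h, RNA was extracted with EDTA and sequenced. RNA level was derived from RNA reads per DNA read, normalized to a spiked-in non-cleaving sequence or the top sequences, then scaled and log-transformed. Values were ×100 then log10, the top set was 25 sequences, and the minimum was 100 DNA reads.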

(6R,S)-folinic acid [3] = variants of: B1; assay: FACS-Seq fitted mean relative fluorescence mCherry/BFP with ligand (log10 relative fluorescence); HEK293T overexpressing SLC46A1; ligand concentration (+) FACS-Seq: 6 mM; higher = higher reporter protein expression; conditions: with (6R,S)-folinic acid; ligand present: yes
In short: as §1

(6R,S)-folinic acid [4] = variants of: B1; assay: normalized RNA/DNA level with ligand (relative to sTRSVctl = 100) (log10 (% of sTRSVctl)); HEK293T overexpressing SLC46A1; ligand concentration (+) RNA-Seq: 6 mM; higher = less ribozyme self-cleavage, higher mRNA level; conditions: with (6R,S)-folinic acid; ligand present: yes
In short: as §2

Variant	FACS-Seq fitted mean (log10) ((6R,S)-folinic acid [1])	normalized RNA/DNA level without ligand (log10) ((6R,S)-folinic acid [2])	FACS-Seq fitted mean (log10) ((6R,S)-folinic acid [3])	normalized RNA/DNA level with ligand (log10) ((6R,S)-folinic acid [4])
AUGACU	0.261 ± 0.032	2.01 ± 0.025	0.313 ± 0.27	2.02 ± 0.03
AUGACG	0.318 ± 0.062	1.941 ± 0.0037	0.394 ± 0.14	2.02 ± 0.022
GUCAUG	0.406 ± 0.047	2.004 ± 0.01	0.165 ± 0.087	2.03 ± 0.027
UUCCGA	-0.0446 ± 0.086	1.997 ± 0.002	-0.101 ± 0.13	1.999 ± 0.018
AUAUCC	0.455 ± 0.027	2.0352 ± 0.00073	0.839 ± 0.019	2.03 ± 0.039
CUAUUG	0.309 ± 0.21	2.023 ± 0.011	0.316 ± 0.2	2.01 ± 0.0053
CUAUUU	0.149 ± 0.064	1.984 ± 0.0088	-0.0506 ± 0.019	1.984 ± 0.016
UUAUGA	0.0124 ± 0.043	1.9284 ± 0.0007	-0.0229 ± 0.25	2.01 ± 0.027
UUAUGU	0.389 ± 0.12	1.919 ± 0.0091	0.413 ± 0.13	1.987 ± 0.019
UUAGGG	0.0949 ± 0.0093	1.776 ± 0.008	0.324 ± 0.11	2 ± 0.021
UUGAUG	0.136 ± 0.018	1.797 ± 0.0018	0.436 ± 0.22	1.99 ± 0.046
UUAUCU	0.453 ± 0.099	2.0125 ± 0.0014	0.133 ± 0.1	2.03 ± 0.0072
GUCCCC	-0.921 ± 0.05	2.022 ± 0.014	-1.94 ± 0.26	1.995 ± 0.0047
UUCCUG	0.284 ± 0.092	1.96 ± 0.027	0.493 ± 0.079	2.03 ± 0.024
GUCACC	0.379 ± 0.15	2.07 ± 0.021	0.061 ± 0.042	2.063 ± 0.013
GUCACG	0.0918 ± 0.029	2.024 ± 0.0084	0.228 ± 0.096	2.042 ± 0.015
UUGAGA	0.325 ± 0.084	1.841 ± 0.013	0.468 ± 0.01	1.993 ± 0.0082
UUGAGG	0.275 ± 0.1	1.86 ± 0.025	0.336 ± 0.18	2.006 ± 0.0026

Variant	FACS-Seq fitted mean (log10) ((6R,S)-folinic acid [1])	normalized RNA/DNA level without ligand (log10) ((6R,S)-folinic acid [2])	FACS-Seq fitted mean (log10) ((6R,S)-folinic acid [3])	normalized RNA/DNA level with ligand (log10) ((6R,S)-folinic acid [4])
UUGCUA	0.353 ± 0.027	2.002 ± 0.0079	0.377 ± 0.051	2.04 ± 0.026
UUGAAG	0.386 ± 0.00085	1.75 ± 0.026	0.374 ± 0.21	1.981 ± 0.0095
UUGAAA	0.358 ± 0.051	1.936 ± 0.014	0.286 ± 0.27	2.02 ± 0.028
GUCUAU	0.0107 ± 0.49	2 ± 0.014	0.473 ± 0.4	2.02 ± 0.026
CUGGCU	0.556 ± 0.0076	2.033 ± 0.016	0.55 ± 0.13	2.02 ± 0.036
UUCUGC	0.411 ± 0.14	2.049 ± 0.02	0.336 ± 0.038	2.04 ± 0.052
UUCUGG	0.429 ± 0.029	1.887 ± 0.0036	0.696 ± 0.12	2.03 ± 0.037
GUCCAG	0.335 ± 0.07	1.966 ± 0.011	0.103 ± 0.16	1.975 ± 0.018
AUGCAA	0.349 ± 0.0069	1.9632 ± 0.00072	0.36 ± 0.083	1.976 ± 0.011
AUGCAC	0.724 ± 0.038	2.001 ± 0.0052	0.703 ± 0.1	2.014 ± 0.01
GUGACC	0.7143 ± 0.0036	2.03 ± 0.0039	0.585 ± 0.22	2.02 ± 0.028
GUGACA	0.277 ± 0.2	1.989 ± 0.003	0.446 ± 0.1	1.99 ± 0.05
AUGAAA	0.535 ± 0.016	1.944 ± 0.0099	0.656 ± 0.15	1.98 ± 0.033
AUGAAU	0.232 ± 0.017	1.929 ± 0.013	0.0739 ± 0.05	2 ± 0.022
AUGAAG	0.432 ± 0.049	1.836 ± 0.0092	0.578 ± 0.14	1.99 ± 0.048
UUGGAA	0.241 ± 0.03	1.9 ± 0.025	0.528 ± 0.17	1.99 ± 0.029
UUGGAG	-0.00192 ± 0.0051	1.71 ± 0.035	0.315 ± 0.1	1.99 ± 0.016
AUGGCG	0.284 ± 0.024	1.91 ± 0.022	0.359 ± 0.058	2.04 ± 0.031
